# Results reported in IntAct's records for PubMed 27832861.
# B1: Aquaporin-7 (Homo sapiens), O14520 (parent)
# chain: MVQASGHRRSTRGSKMVSWSVIAKIQEILQRKMVREFLAEFMSTYVMMVFGLGSVAHMVLNKKYGSYLGVNLGFGFGVTMGVHVAGRISGAHMNAAVTFANCALGRVPWRKFPVYVLGQFLGSFLAAATIYSLFYTAILHFSGGQLMVTGPVATAGIFATYLPDHMTLWRGFLNEAWLTGMLQLCLFAITDQENNPALPGTEALVIGILVVIIGVSLGMNTGYAINPSRDLPPRIFTFIAGWGKQVFSNGENWWWVPVVAPLLGAYLGGIIYLVFIGSTIPREPLKLEDSVAYEDHGITVLPKMGSHEPTISPLTPVSVSPANRSSVHPAPPLHESMALEHF
# partner: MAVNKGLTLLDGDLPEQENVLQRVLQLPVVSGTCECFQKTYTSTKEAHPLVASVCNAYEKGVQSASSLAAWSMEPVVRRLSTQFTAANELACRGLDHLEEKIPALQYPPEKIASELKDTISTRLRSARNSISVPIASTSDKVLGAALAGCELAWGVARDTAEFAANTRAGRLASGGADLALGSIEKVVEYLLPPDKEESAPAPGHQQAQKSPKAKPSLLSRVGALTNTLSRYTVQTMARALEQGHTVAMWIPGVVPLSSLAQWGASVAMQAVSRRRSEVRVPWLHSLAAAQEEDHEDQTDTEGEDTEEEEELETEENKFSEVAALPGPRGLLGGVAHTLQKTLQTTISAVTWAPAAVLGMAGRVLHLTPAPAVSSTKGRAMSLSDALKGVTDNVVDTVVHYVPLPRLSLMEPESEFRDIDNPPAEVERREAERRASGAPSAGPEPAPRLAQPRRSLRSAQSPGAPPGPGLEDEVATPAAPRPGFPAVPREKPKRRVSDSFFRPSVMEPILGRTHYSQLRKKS
# Variants of: B1
# Conditions: with plin1_human PLIN1, O60240
row,Variant,effect of a mutation on the interaction
1,S10A;T11A,disrupting interaction strength
